We go through 16 molecules from US20210047399A1 (PHANES THERAPEUTICS, published 2021).

Positions count from the first letter of the chain named. Names may count otherwise.

Assay [1] addresses T1, human CD47 extracellular domain (CD47(ECD)) (human, UniProt Q08722 19-139).
T1 construct: extracellular domain; Bought protein; also called human CD47(ECD); immobilized CD47
Briefly: ELISA, human CD47(ECD) coated on plate. As to the method:
The purified mAbs were analyzed for their ability to bind to the extracellular domain of CD47 (CD47(ECD)) in an ELISA assay as follows: human CD47(ECD) (AcroBio, Cat #: CD7-HA2E9-50 μg) in carbonate coating buffer (50 μL/well at 1 μg/mL) was coated on a 96-well ELISA plate for 1 hour at room temperature. After washing, the plate was blocked in 5% BSA in TBST for 1 hour at room temperature and washed again. In each well of the plate, an antibody at 50 μL/well at various concentrations was added and incubated for 1 hour at room temperature. The plate was washed and the binding of the antibody to the immobilized CD47 was detected by incubating with anti-human IgG conjugated to horseradish peroxidase (hIgG-HRP) (ThermoFisher Scientific, Cat #: H10007) for 60 minutes at room temperature. Then after washing, the ELISA was developed using One-step Detection Solution (ThermoFisher Scientific, Cat #: 34028) and measured as the absorbance at 450 nm.
A general note: ELISA stands for enzyme-linked immunosorbent assay.

The target in assay [2] is T2, recombinant FLAG-huDLL3 (human DLL3 extracellular domain with FLAG tag at the N-terminus) (human, UniProt Q9NYJ7 27-492).
T2 construct: Bought (Adipogen, Cat AG40B-0151); the whole entry is named here; also called recombinant DLL3 protein; recombinant human FLAG-huDLL3; not shown: N-terminal FLAG tag
T2 sequence: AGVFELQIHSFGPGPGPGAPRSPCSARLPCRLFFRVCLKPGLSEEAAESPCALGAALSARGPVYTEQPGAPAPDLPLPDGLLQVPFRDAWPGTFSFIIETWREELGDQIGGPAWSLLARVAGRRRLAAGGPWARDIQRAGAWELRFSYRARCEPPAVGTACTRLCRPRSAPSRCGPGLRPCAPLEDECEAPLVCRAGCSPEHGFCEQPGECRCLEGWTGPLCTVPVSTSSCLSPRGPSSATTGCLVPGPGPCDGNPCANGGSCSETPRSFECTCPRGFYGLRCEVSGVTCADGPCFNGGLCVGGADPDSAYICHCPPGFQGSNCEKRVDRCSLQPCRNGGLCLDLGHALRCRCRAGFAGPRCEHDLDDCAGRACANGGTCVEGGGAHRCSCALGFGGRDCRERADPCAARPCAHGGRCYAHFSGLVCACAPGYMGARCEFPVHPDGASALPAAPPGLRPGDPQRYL
In words: ELISA, FLAG-huDLL3 coated on plate.

Assay [3] addresses T1, human CD47 extracellular domain …. Briefly: ELISA, CD47(ECD) coated on regular plate (FIG. 5).

T1 sequence (Q08722 19-139 limits assumed): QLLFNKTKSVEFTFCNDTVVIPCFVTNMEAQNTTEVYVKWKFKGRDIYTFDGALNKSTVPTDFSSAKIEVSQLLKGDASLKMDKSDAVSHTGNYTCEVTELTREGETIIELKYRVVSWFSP

B1: humanized anti-CD47 mAb KH3L4 (antibody, V domains shown)
VH: EVRLSQSGGQMKKPGESMRLSCRASGYTFTSYWMHWVRQAPGRRLEWIGNIDPSDSETHYARKFQGRATLTVDKYSDTAFLELRSLTSDDTAVYYCAGTDLAYWGRGAPVTVSS
VL: EIVMTQSPATLSLSPGETAIISCHASQNINVWLSWYQQRPGQAPRLLIYKASNLHTGIPDRFSGSGWGTDFNLSISNLESGDFGVYYCQQGQSYPWTFGQGTKVEIK
The term EC50 denotes the concentration giving half of the maximal effect. Consider B1, for which, in assay [1], the response was half-maximal at 0.08 nM (EC50).

B2: humanized anti-CD47 mAb KH2L3 (antibody, V domains shown)
VH: QVQLVQSGAEVKKPGASVKVSCKASGYTFTSYWMHWVRQAPGQGLEWIGNIDPSDSETHYAQKFQGRVTLTVDKSTSTVYMELSSLRSEDTAVYYCAGTDLAYWGQGTLVTVSS
VL: B1 VL with W96F
The molecule B2 yielded an EC50 in assay [1] of 0.09 nM.

B3: humanized anti-DLL3 mAb H1L1 (antibody, V domains shown)
VH: EVRLSQSGGQMKKPGESMRLSCRASGYTFTSYVMHWVRQAPGRRPEWIGYINPYNDATKYARKFQGRATLTSDKYSDTAFLELRSLTSDDTAVYYCARGGYDYDGDYWGRGAPVTVSS
VL: EIVMTQSPGTLSLSPGERATLSCHASQNINVWLSWYQQKPGQAPRLLIYKASNLHTGIPDRFSGSGSGTDFTLTISRLEPEDFAVYYCQQGQSYPFTFGQGTKVEIK
notes: Humanized 13P9A
With B3, in assay [2], the concentration for a half-maximal effect (EC50) turned out to be 0.13 nM.

B4: anti-CD47/DLL3 bispecific antibody BA4(C) (bispecific antibody)
heavy 1: B2 VH
heavy 2: B3 VH
light: B3 VL with M4L
notes: Variable regions of BA1 on the IgG4 framework with the same cysteine mutations as BA1(C); not shown: IgG4 heavy chain constant region ("IgG4 frame work") with the same cysteine mutation as BA1(C); knob mutation not explic; hole mutations not expli; kappa light chain constant region
In the case of B4, the binding result in assay [3] is “binds”.

B5: humanized anti-CD47 mAb KH3L1 (antibody, V domains shown)
VH: B1 VH
VL: B3 VL
B5 had an EC50 in assay [1] of 0.09 nM.

B6: humanized anti-CD47 mAb KH1L1 (antibody, V domains shown)
VH: B2 VH with A16S, V68A, V79A
VL: B3 VL
notes: Humanized VH of anti-CD47 mAb 17C6A with humanized VL of anti-DLL3 13P9A
In the case of B6, the EC50 in assay [1] was determined as 1.17 nM.

B7: anti-CD47/DLL3 bispecific antibody BA1(C) (bispecific antibody)
heavy 1: B2 VH
heavy 2: B3 VH
light: B3 VL with M4L
notes: BA1 further modified by S354C on the anti-CD47 HC (KH2) and Y349C on the anti-DLL3 HC (H1); not shown: IgG1 heavy chain constant region, knob with added cysteine; IgG1 heavy chain constant region, hole with added cysteine; kappa light chain constant region
As for B7, the binding result in assay [3] was “binds”.

B8: anti-CD47/DLL3 bispecific antibody BA1 (KH2/H1/L2) (bispecific antibody)
heavy 1: B2 VH
heavy 2: B3 VH
light: B3 VL with M4L
notes: Common light chain L2; anti-CD47 arm KH2 (knob), anti-DLL3 arm H1 (hole); not shown: IgG1 heavy chain constant region, knob; IgG1 heavy chain constant region, hole; kappa light chain constant region
For the molecule B8, the binding result in assay [3] was “binds”.

B9: humanized anti-CD47 mAb KH2L2 (antibody, V domains shown)
VH: B2 VH
VL: B3 VL with M4L
notes: also called anti-CD47 parental mAb
In the case of B9, a half-maximal effect in assay [1] (EC50) was put at 0.18 nM.

B10: humanized anti-CD47 mAb KH3L2 (antibody, V domains shown)
VH: B1 VH
VL: B3 VL with M4L
In assay [1], B10 yielded an EC50 of 0.08 nM.

B11: humanized anti-DLL3 mAb H1L2 (antibody, V domains shown)
VH: B3 VH
VL: B3 VL with M4L
notes: also called anti-DLL3 parental mAb
As to B11, the EC50 in assay [2] was found to be 0.12 nM.

B12: humanized anti-CD47 mAb KH3L3 (antibody, V domains shown)
VH: B1 VH
VL: B1 VL with W96F
B12: the EC50 in assay [1] came out at 0.18 nM.

B13: humanized anti-CD47 mAb KH1L2 (antibody, V domains shown)
VH: B2 VH with A16S, V68A, V79A
VL: B3 VL with M4L
In the case of B13, the EC50 in assay [1] was determined as 0.64 nM.

B14: humanized anti-CD47 mAb KH2L1 (antibody, V domains shown)
VH: B2 VH
VL: B3 VL
B14 returned an EC50 in assay [1] of 0.19 nM.

B15: humanized anti-DLL3 mAb H1L3 (antibody, V domains shown)
VH: B3 VH
VL: B1 VL with W96F
As for B15, the concentration for a half-maximal effect (EC50) in assay [2] came to 0.15 nM.

B16: humanized anti-CD47 mAb KH1L3 (antibody, V domains shown)
VH: B2 VH with A16S, V68A, V79A
VL: B1 VL with W96F
B16 registered an EC50 in assay [1] of 0.76 nM.
